Assay results published in US7101851 (dated 2006).
Bridges are numbered along the chain shown (N, C = ends). Where no end group is shown, it is not given here.

What was measured:
[1] = target: T1, alpha subunit of the human FcεRI receptor expressed on cells (human, UniProt P12319 26-257); test: IgE inhibition assay (Table 9)
T1 construct: whole, on cells; on rat basophil RBL-48 cells in the histamine release assay; also called CHO FcεRI+ cells; cell surface expressed FcεRI
T1 sequence (looked up): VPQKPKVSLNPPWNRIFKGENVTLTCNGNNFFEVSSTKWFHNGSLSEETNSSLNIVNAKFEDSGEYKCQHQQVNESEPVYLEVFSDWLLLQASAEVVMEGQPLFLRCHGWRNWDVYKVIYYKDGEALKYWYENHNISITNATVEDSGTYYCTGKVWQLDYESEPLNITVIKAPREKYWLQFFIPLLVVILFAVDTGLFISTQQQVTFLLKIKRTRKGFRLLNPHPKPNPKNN

[2] = target: T2, extracellular domain of the alpha subunit of the human FcεRI (aa 1-176), produced in baculovirus infected … (human, UniProt P12319 26-201, N-linked carbohydrate (NAG on Asn21 seen in the crystal); derivatised with PDEA for thiol coupling to the chip in the biosensor assay); test: SPR biosensor (BIAcore), peptide over immobilized FcεRIα, steady-state saturation curve, 4-parameter fit
T2 construct: range 1-176; Residues 1-176 are probably counted without the signal peptide; also called FcεRIα; soluble FcεRI
T2 sequence (looked up): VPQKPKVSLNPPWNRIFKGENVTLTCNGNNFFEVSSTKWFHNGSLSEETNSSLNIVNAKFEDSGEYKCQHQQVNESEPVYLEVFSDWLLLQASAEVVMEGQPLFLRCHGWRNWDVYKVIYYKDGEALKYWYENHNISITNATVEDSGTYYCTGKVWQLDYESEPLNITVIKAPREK
Description: *peptide is a dimer. SEQ ID NO: describes each monomer of the dimer. "ava" = amino-valeric acid Several peptides were also tested in a direct-binding assay using a surface plasmon resonance biosensor (Lofas & Johnsson, *J. Chem. Soc. Commun.* 21, 1526–1528 (1990)). FcεRIα, produced in baculovirus infected insect cells, was immobilized by the surface thiol method (BIAcore Methods Manual Supplement 5a, BIAcore, Inc., Piscataway, N.J.). Briefly, receptor was reacted with 2-(2-pyridinyldithio)ethaneamine hydrochloride (PDEA; Natake & Swaisgood, *J. Biochem.* 74, 77–86 (1973)), desalted into 10 mM sodium acetate (pH 4.8) and stored in aliquots at −80° C. Thawed PDEA-receptor was injected over carboxymethyl-dextran (B1 or CM5, BIAcore, Inc.) biosensor chips preactivated with N-ethyl-N'-(3-dimethylaminopropyl)-carbodiimide hydrochloride (EDC) and N-hydroxysuccinimide (NHS), cystamine, and DTT. Following coupling, reactive groups on the chip were quenched with PDEA and ethanolamine. Serial dilutions of peptide in running buffer (phosphate-buffered saline containing 0.05% Tween-20, 0.01% sodium azide) were injected over the immobilized receptor, and the net amount of peptide bound at steady-state was measured as the net change in response (RU) at a point just prior to termination of peptide injection, compared to a running-buffer baseline. Binding affinities (Table 10) are reported as the midpoint ($EC50$) of a 4-parameter fit to the peptide saturation curve. In the case of IGE134 (SEQ ID NOS:), the value shown indicates the Kd calculated from the rate constants, $kon$ and $koff$. The results of binding assays (Table 8) correlate well with those of inhibition assays (Table 7).

B1: IGE127 (peptide)
peptide: IVCARLCYVGGKALCPDVCYV-NH2
modifications: disulfide 3-15, 7-19
notes: P4A of IGE120
With B1 as the binder, how does the “fold reduced activity against its control peptide” value [1] read?
The value was 50 fold.

B2: IGE131 (peptide)
peptide: VQCPHFCYVGGKVQCPHFCYV-NH2
modifications: disulfide 3-15, 7-19
notes: The text speaks of it as D17H against IGE122
Which “fold reduced activity against IGE122” value [1] does the source give for B2 here?
Its value is > 10 fold.

B3: IGE132 (peptide)
peptide: VQCPHFCYVGGHALCPDVCYVGR-OH
modifications: cysteine pairing not given here
notes: produced biosynthetically as a fusion to the Z-domain of protein A and cleaved off with trypsin; free C-terminus
With B3 as the binder, how does the EC50 [2] read?
The EC50 was 680 nM.

B4: IGE123 (peptide)
peptide: VKCPSLCYVGGKALCPDVCYV-NH2
modifications: disulfide (positions not given here); also: oxidized, disulfide-bonded Cys, pairing not given here
For B4, which EC50 [2] is on record?
Its EC50 is 180 nM.

B5: IGE124 (peptide)
peptide: VPCPELCYVGGKALCPDVCYV-NH2
modifications: disulfide (positions not given here); also: oxidized, disulfide-bonded Cys, pairing not given here
With B5 as the binder, how does the EC50 [2] read?
The EC50 was 890 nM.

B6: IGE150 (peptide)
peptide: VQCPHFCYVGGKALCPDVCDV-NH2
modifications: disulfide (positions not given here); also: two intramolecular disulfide bonds, pairing not given here
notes: Y20D of IGE122
For B6, which “fold loss in activity” value [1] is on record?
The value was ~5 fold.

B7: IGE170 (peptide)
peptide: CPHFCYFGAELCPDVCY-NH2
modifications: disulfide (positions not given here)
Which “fold difference in activity against IGE167” value [1] does the source give for B7 here?
The value was ≤ 2 fold.

B8: IGE120 (peptide)
peptide: IVCPRLCYVGGKALCPDVCYV-NH2
modifications: disulfide (positions not given here); also: oxidized, disulfide-bonded Cys, pairing not given here
B8 was tested. Which EC50 [2] did it give?
Its EC50 is 260 nM.

B9: IGE127 (peptide)
peptide: IVCARLCYVGGKALCPDVCYV-NH2
modifications: disulfide (positions not given here); not fully specified (bridges); also: oxidized, disulfide-bonded Cys, pairing not given here
notes: P4A variant of IGE120
For B9, which EC50 [2] is on record?
The EC50 was 13000 nM.

B10: IGE122 (peptide)
peptide: VQCPHFCYVGGKALCPDVCYV-NH2
modifications: disulfide (positions not given here); also: oxidized, disulfide-bonded Cys, pairing not given here
For B10, which EC50 [2] is on record?
Its EC50 is 150 nM.

B11: IGE128 (peptide)
peptide: KSCPLWCYVGGKALCPDVCYV-NH2
modifications: disulfide (positions not given here); not fully specified (bridges); also: oxidized, disulfide-bonded Cys, pairing not given here
For B11, which EC50 [2] is on record?
Its EC50 is 240 nM.

B12: IGE130 (peptide)
peptide: ALCPDVCYVGGKVQCPHFCYV-NH2
modifications: disulfide 7-15, 3-19; N-terminus assumed
SMILES: CC(C)C[C@H](NC(=O)[C@H](C)N)C(=O)N[C@H]1CSSC[C@@H](C(=O)N[C@@H](Cc2ccc(O)cc2)C(=O)N[C@H](C(N)=O)C(C)C)NC(=O)[C@H](Cc2ccccc2)NC(=O)[C@H](Cc2c[nH]cn2)NC(=O)[C@@H]2CCCN2C(=O)[C@@H]2CSSC[C@H](NC(=O)[C@H](C(C)C)NC(=O)[C@H](CC(=O)O)NC(=O)[C@@H]3CCCN3C1=O)C(=O)N[C@@H](Cc1ccc(O)cc1)C(=O)N[C@@H](C(C)C)C(=O)NCC(=O)NCC(=O)N[C@@H](CCCCN)C(=O)N[C@@H](C(C)C)C(=O)N[C@@H](CCC(N)=O)C(=O)N2
B12 was tested. Which EC50 [2] did it give?
Its EC50 is 250 nM.

B13: IGE083 (peptide)
peptide: ALCPAVCYVGGKALCPDVCYV-NH2
modifications: disulfide 7-15, 3-19; N-terminus assumed
SMILES: CC(C)C[C@H](NC(=O)[C@H](C)N)C(=O)N[C@H]1CSSC[C@@H](C(=O)N[C@@H](Cc2ccc(O)cc2)C(=O)N[C@H](C(N)=O)C(C)C)NC(=O)[C@H](C(C)C)NC(=O)[C@H](CC(=O)O)NC(=O)[C@@H]2CCCN2C(=O)[C@@H]2CSSC[C@H](NC(=O)[C@H](C(C)C)NC(=O)[C@H](C)NC(=O)[C@@H]3CCCN3C1=O)C(=O)N[C@@H](Cc1ccc(O)cc1)C(=O)N[C@@H](C(C)C)C(=O)NCC(=O)NCC(=O)N[C@@H](CCCCN)C(=O)N[C@@H](C)C(=O)N[C@@H](CC(C)C)C(=O)N2
notes: single chain dimer form of IGE089 with Ala17Asp
B13 was tested. Which EC50 [2] did it give?
The EC50 was 1100 nM.

B14: IGE121 (peptide)
peptide: VVCPNMCYVGGKALCPDVCYV-NH2
modifications: disulfide (positions not given here); also: oxidized, disulfide-bonded Cys, pairing not given here
For B14, which EC50 [2] is on record?
Its EC50 is 340 nM.

B15: IGE141 (peptide)
peptide: IVCPRLCYELDYELCPDVCYV-NH2
modifications: disulfide 3-15, 7-19
B15 was tested. Which “fold difference in activity against IGE120” value [1] did it give?
The value was 2 fold.

B16: IGE136 (peptide)
peptide: VQCPHFCYFGGAELCPGVCYV-NH2
modifications: disulfide 3-15, 7-19
B16 was tested. Which “fold difference in activity against IGE135” value [1] did it give?
Its value is ~2 fold.

B17: IGE171 (peptide)
peptide: Ac-CPHFCYFGAELCPDVCY-NH2
modifications: disulfide (positions not given here)
For B17, which “fold difference in activity against IGE167” value [1] is on record?
Its value is ≤ 2 fold.

B18: IGE131 (peptide)
peptide: VQCPHFCYVGGKVQCPHFCYV-NH2
modifications: disulfide (positions not given here); not fully specified (bridges); also: oxidized, disulfide-bonded Cys, pairing not given here
How did the EC50 [2] turn out when B18 was run?
The EC50 was 2300 nM.

B19: IGE126 (peptide)
peptide: VTCPRWCYVGGKALCPDVCYV-NH2
modifications: disulfide (positions not given here); also: oxidized, disulfide-bonded Cys, pairing not given here
B19 was tested. Which EC50 [2] did it give?
The EC50 was 380 nM.

B20: IGE089 (peptide)
peptide: ALCPAVCYV-NH2
modifications: also: antiparallel disulfide-linked homodimer, interchain C3-C7' and C7-C3'
notes: also called IGE037 dimer
How did the EC50 [2] turn out when B20 was run?
Its EC50 is 64000 nM.

B21: IGE155 (peptide)
peptide: CPHFCYELDYELCPDVCY-NH2
modifications: disulfide (positions not given here); also: two intramolecular disulfide bonds, pairing not given here
Which “fold difference in activity against IGE134” value [1] does the source give for B21 here?
Its value is ≤ 2 fold.

B22: IGE142 (peptide)
peptide: VQCAHFCYVGGHALCPDVCYVGR
modifications: disulfide (positions not given here); also: two intramolecular disulfide bonds, pairing not given here
notes: P4A of IGE132; made in E. coli as a Z-domain fusion and cleaved with trypsin
With B22 as the binder, how does the “fold reduced activity against its control peptide” value [1] read?
The value was > 100 fold.

B23: IGE119 (peptide)
peptide: NGCPGWCYVGGKALCPDVCYV-NH2
modifications: disulfide 7-15, 3-19; N-terminus assumed
SMILES: CC(C)C[C@@H]1NC(=O)[C@H](C)NC(=O)[C@H](CCCCN)NC(=O)CNC(=O)CNC(=O)[C@H](C(C)C)NC(=O)[C@H](Cc2ccc(O)cc2)NC(=O)[C@@H]2CSSC[C@H](NC1=O)C(=O)N1CCC[C@H]1C(=O)N[C@@H](CC(=O)O)C(=O)N[C@@H](C(C)C)C(=O)N[C@H](C(=O)N[C@@H](Cc1ccc(O)cc1)C(=O)N[C@H](C(N)=O)C(C)C)CSSC[C@H](NC(=O)CNC(=O)[C@@H](N)CC(N)=O)C(=O)N1CCC[C@H]1C(=O)NCC(=O)N[C@@H](Cc1c[nH]c3ccccc13)C(=O)N2
For B23, which EC50 [2] is on record?
The EC50 was 1400 nM.
